Reference: patent publication US20220218752A1 (University of Washington, published 2022)

Experiments:
[1] = biological target: T1, Her2-eGFP (hsHER2_ecd_tm-eGFP) (human (printed as hs)); assay: flow cytometry on mixed K562 cells expressing Her2-eGFP, EGFR-iRFP, both or neither; DARPin pre-complexed with Bcl2-AF594, 3-fold dilutions from 300 nM to 0.4 nM
T1 construct: Her2 ectodomain and transmembrane region fused to eGFP, expressed on K562 cells by lentiviral transduction; also called K562/Her2
Protocol: (§1) FIG. 21. DARPin binder affinity measured by flow cytometry. Anti-Her2 or anti-EGFR DARPins with N-terminal fusions to Bim were pre-complexed with Bcl2-AF594 and serially diluted 3-fold from 300 nM down to 0.4 nM. This dilution series was used to label a mixed population of K562 cells expressing Her2-eGFP, EGFR-iRFP, both, or neither for one hour at room temperature in a 50 μl incubation volume. The cells were then washed in PBS supplemented with 0.1% bovine serum albumin and analyzed on an LSRII flow cytometer.

[2] = biological target: T2, EGFR-iRFP (hsEGFR_ecd_tm-iRFP) (human (printed as hs)); assay: as above
T2 construct: EGFR ectodomain and transmembrane region fused to iRFP, expressed on K562 cells by lentiviral transduction; also called K562/EGFR
T2 sequence (chain, as listed by the source limits assumed): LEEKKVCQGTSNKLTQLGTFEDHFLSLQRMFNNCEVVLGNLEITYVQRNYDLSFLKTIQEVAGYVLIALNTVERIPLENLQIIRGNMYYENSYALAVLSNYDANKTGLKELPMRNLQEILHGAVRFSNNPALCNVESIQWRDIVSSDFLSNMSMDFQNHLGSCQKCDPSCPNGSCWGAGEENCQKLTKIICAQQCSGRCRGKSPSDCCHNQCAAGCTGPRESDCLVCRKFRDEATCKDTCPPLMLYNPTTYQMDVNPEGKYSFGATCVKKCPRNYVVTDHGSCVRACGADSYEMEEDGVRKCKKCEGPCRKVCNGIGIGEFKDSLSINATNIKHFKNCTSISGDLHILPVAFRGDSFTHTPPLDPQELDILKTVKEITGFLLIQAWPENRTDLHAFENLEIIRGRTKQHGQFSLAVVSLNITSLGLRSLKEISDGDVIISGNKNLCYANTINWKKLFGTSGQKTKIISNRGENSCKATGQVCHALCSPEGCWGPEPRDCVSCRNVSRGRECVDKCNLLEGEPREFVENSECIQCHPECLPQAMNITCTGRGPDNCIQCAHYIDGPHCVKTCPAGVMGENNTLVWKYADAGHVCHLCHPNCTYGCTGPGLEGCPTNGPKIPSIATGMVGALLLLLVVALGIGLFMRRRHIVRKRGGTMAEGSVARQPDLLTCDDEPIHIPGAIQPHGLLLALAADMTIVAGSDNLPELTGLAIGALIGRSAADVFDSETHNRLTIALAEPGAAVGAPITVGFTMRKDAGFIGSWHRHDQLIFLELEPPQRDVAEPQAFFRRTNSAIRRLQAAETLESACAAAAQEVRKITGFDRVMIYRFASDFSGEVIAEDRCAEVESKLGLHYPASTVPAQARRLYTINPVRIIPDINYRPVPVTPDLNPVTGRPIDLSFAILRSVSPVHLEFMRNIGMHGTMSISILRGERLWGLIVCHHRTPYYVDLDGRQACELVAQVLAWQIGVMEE
Protocol: as §1

Row | Binder | Kd [1] [nM] | Kd [2] [nM]
1 | Bim_Her2 (Her2 DARPin tagged with N-terminal Bim peptide) (designed binder, also called anti-Her2 DARPin with N-terminal fusion to Bim; Bim-DARPin) MGSHHHHHHGSGSENLYFQGSTDEIWIAQELRRIGDEFNAYYASGSGDLGKKLLEAARAGQDDEVRILMANGADVNAKDEYGLTPLYLATAHGHLEIVEVLLKNGADVNAVDAIGFTPLHLAAFIGHLEIAEVLLKHGADVNAQDKFGKTAFDISIGNGNEDLAEILQKLN | ~10 | 
2 | Bim_EGFR (EGFR DARPin tagged with N-terminal Bim peptide) (designed binder, also called anti-EGFR DARPin with N-terminal fusion to Bim; Bim-DARPin) MGSHHHHHHGSGSENLYFQGSTDEIWIAQELRRIGDEFNAYYASGSGDLGKKLLEAARAGQDDEVRILMANGADVNADDTWGWTPLHLAAYQGHLEIVEVLLKNGADVNAYDYIGWTPLHLAADGHLEIVEVLLKNGADVNASDYIGDTPLHLAAHNGHLEIVEVLLKHGADVNAQDKFGKTAFDISIDNGNEDLAEILQKLN |  | ~10
